Data on ten molecules can be found in patent US20230407373A1 (priority 2020, published 2023).

The assay deals with HCoV-OC43 gRNA and sgRNA. The class given is binding. Particulars: for target (unweighted spectral count, OC43 Probe II capture) / target (unweighted spectral count): tested against no-probe control; for target (unweighted spectral count, OC43 Probe II capture): FDR<10%; for target (unweighted spectral count): OC43 Probe II, infected cells; for target (unweighted spectral count, OC43 Probe II) / background (unweighted spectral count, no-probe control): type n_48_v, 48 hpi; for target (unweighted spectral count, OC43 Probe II): OC43 Probe II capture on infected cells; for background (unweighted spectral count, no-probe control): no-probe control on infected cells.

Where two headings read alike, the source gives them in different places.

B1: HNRNPF (protein, UniProt P52597 1-415, looked up)
Heterogeneous nuclear …: MMLGPEGGEGFVVKLRGLPWSCSVEDVQNFLSDCTIHDGAAGVHFIYTREGRQSGEAFVELGSEDDVKMALKKDRESMGHRYIEVFKSHRTEMDWVLKHSGPNSADSANDGFVRLRGLPFGCTKEEIVQFFSGLEIVPNGITLPVDPEGKITGEAFVQFASQELAEKALGKHKERIGHRYIEVFKSSQEEVRSYSDPPLKFMSVQRPGPYDRPGTARRYIGIVKQAGLERMRPGAYSTGYGGYEEYSGLSDGYGFTTDLFGRDLSYCLSGMYDHRYGDSEFTVQSTTGHCVHMRGLPYKATENDIYNFFSPLNPVRVHIEIGPDGRVTGEADVEFATHEEAVAAMSKDRANMQHRYIELFLNSTTGASNGAYSSQVMQGMGVSAAQATYSGLESQSVSGCYGAGYSGQNSMGGYD
Regarding B1, the “target (unweighted spectral count, OC43 Probe II)” value is given as 34 and the “background (unweighted spectral count, no-probe control)” value came to 4. For the setting “36 hpi, type n_36_v”, the “target (unweighted spectral count, OC43 Probe II capture)” value is on record as 34. Where the note is “12 hpi (type n_12_v)”, the “target (unweighted spectral count)” value is given as 13. In addition, the “target (unweighted spectral count)” value (24 hpi (type n_24_v)) is 27.

B2: JUP (protein, UniProt P14923 1-745, looked up)
Junction plakoglobin: MEVMNLMEQPIKVTEWQQTYTYDSGIHSGANTCVPSVSSKGIMEEDEACGRQYTLKKTTTYTQGVPPSQGDLEYQMSTTARAKRVREAMCPGVSGEDSSLLLATQVEGQATNLQRLAEPSQLLKSAIVHLINYQDDAELATRALPELTKLLNDEDPVVVTKAAMIVNQLSKKEASRRALMGSPQLVAAVVRTMQNTSDLDTARCTTSILHNLSHHREGLLAIFKSGGIPALVRMLSSPVESVLFYAITTLHNLLLYQEGAKMAVRLADGLQKMVPLLNKNNPKFLAITTDCLQLLAYGNQESKLIILANGGPQALVQIMRNYSYEKLLWTTSRVLKVLSVCPSNKPAIVEAGGMQALGKHLTSNSPRLVQNCLWTLRNLSDVATKQEGLESVLKILVNQLSVDDVNVLTCATGTLSNLTCNNSKNKTLVTQNSGVEALIHAILRAGDKDDITEPAVCALRHLTSRHPEAEMAQNSVRLNYGIPAIVKLLNQPNQWPLVKATIGLIRNLALCPANHAPLQEAAVIPRLVQLLVKAHQDAQRHVAAGTQQPYTDGVRMEEIVEGCTGALHILARDPMNRMEIFRLNTIPLFVQLLYSSVENIQRVAAGVLCELAQDKEAADAIDAEGASAPLMELLHSRNEGTATYAAAVLFRISEDKNPDYRKRVSVELTNSLFKHDPAAWEAAQSMIPINEPYGDDMDATYRPMYSSDVPLDPLEMHMDMDGDYPIDTYSDGLRPPYPTADHMLA
On to B2, for which the “target (unweighted spectral count)” value (24 hpi (type n_24_v)) came out at 11.

B3: MTPAP (protein, UniProt Q9NVV4 38-582, looked up)
Poly(A) RNA polymerase, …: KDLRRDEQPSGSVETGFEDKIPKRRFSEMQNERREQAQRTVLIHCPEKISENKFLKYLSQFGPINNHFFYESFGLYAVVEFCQKESIGSLQNGTHTPSTAMETAIPFRSRFFNLKLKNQTSERSRVRSSNQLPRSNKQLFELLCYAESIDDQLNTLLKEFQLTEENTKLRYLTCSLIEDMAAAYFPDCIVRPFGSSVNTFGKLGCDLDMFLDLDETRNLSAHKISGNFLMEFQVKNVPSERIATQKILSVLGECLDHFGPGCVGVQKILNARCPLVRFSHQASGFQCDLTTNNRIALTSSELLYIYGALDSRVRALVFSVRCWARAHSLTSSIPGAWITNFSLTMMVIFFLQRRSPPILPTLDSLKTLADAEDKCVIEGNNCTFVRDLSRIKPSQNTETLELLLKEFFEYFGNFAFDKNSINIRQGREQNKPDSSPLYIQNPFETSLNISKNVSQSQLQKFVDLARESAWILQQEDTDRPSISSNRPWGLVSLLLPSAPNRKSFTKKKSNKFAIETVKNLLESLKGNRTENFTKTSGKRTISTQT
Turning to B3, under “24 hpi, type n_24_v”, the “target (unweighted spectral count, OC43 Probe II capture)” value is 4. In addition, for the setting “12 hpi (type n_12_v)”, the “target (unweighted spectral count)” value is 4.

B4: KPRP (protein, UniProt Q5T749 1-579, looked up)
Keratinocyte proline-rich …: MCDQQQIQCRLPLQQCCVKGPSFCSSQSPFAQSQVVVQAPCEMQIVDCPASCPVQVCQVSDQAPCQSQTTQVKCQSKTKQVKGQAQCQSKTTQVKGQAASQSQTSSVQSQAPCQSEVSYVQCEASQPVQTCFVECAPVCYTETCYVECPVQNYVPCPAPQPVQMYRGRPAVCQPQGRFSTQCQYQGSYSSCGPQFQSRATCNNYTPQFQLRPSYSSCFPQYRSRTSFSPCVPQCQTQGSYGSFTEQHRSRSTSRCLPPPRRLQLFPRSCSPPRRFEPCSSSYLPLRPSEGFPNYCTPPRRSEPIYNSRCPRRPISSCSQRRGPKCRIEISSPCCPRQVPPQRCPVEIPPIRRRSQSCGPQPSWGASCPELRPHVEPRPLPSFCPPRRLDQCPESPLQRCPPPAPRPRLRPEPCISLEPRPRPLPRQLSEPCLYPEPLPALRPTPRPVPLPRPGQCEIPEPRPCLQPCEHPEPCPRPEPIPLPAPCPSPEPCRETWRSPSPCWGPNPVPYPGDLGCHESSPHRLDTEAPYCGPSSYNQGQESGAGCGPGDVFPERRGQDGHGDQGNAFAGVKGEAKSAYF
B4: the “target (unweighted spectral count)” value (24 hpi (type n_24_v)) was found to be 15.

B5: RBM39 (protein, UniProt Q14498 2-530, looked up)
RNA-binding protein 39: ADDIDIEAMLEAPYKKDENKLSSANGHEERSKKRKKSKSRSRSHERKRSKSKERKRSRDRERKKSKSRERKRSRSKERRRSRSRSRDRRFRGRYRSPYSGPKFNSAIRGKIGLPHSIKLSRRRSRSKSPFRKDKSPVREPIDNLTPEERDARTVFCMQLAARIRPRDLEEFFSTVGKVRDVRMISDRNSRRSKGIAYVEFVDVSSVPLAIGLTGQRVLGVPIIVQASQAEKNRAAAMANNLQKGSAGPMRLYVGSLHFNITEDMLRGIFEPFGRIESIQLMMDSETGRSKGYGFITFSDSECAKKALEQLNGFELAGRPMKVGHVTERTDASSASSFLDSDELERTGIDLGTTGRLQLMARLAEGTGLQIPPAAQQALQMSGSLAFGAVAEFSFVIDLQTRLSQQTEASALAAAASVQPLATQCFQLSNMFNPQTEEEVGWDTEIKDDVIEECNKHGGVIHIYVDKNSAQGNVYVKCPSIAAAIAAVNALHGRWFAGKMITAAYVPLPTYHNLFPDSMTATQLLVPSRR
Consider B5, for which the “target (unweighted spectral count)” value was 6 (12 hpi (type n_12_v)) and 10 (24 hpi (type n_24_v)).

B6: TRMT10C (protein, UniProt Q7L0Y3 40-403, looked up)
tRNA methyltransferase 10 …: MSSKIPAVTYPKNESTPPSEELELDKWKTTMKSSVQEECVSTISSSKDEDPLAATREFIEMWRLLGREVPEHITEEELKTLMECVSNTAKKKYLKYLYTKEKVKKARQIKKEMKAAAREEAKNIKLLETTEEDKQKNFLFLRLWDRNMDIAMGWKGAQAMQFGQPLVFDMAYENYMKRKELQNTVSQLLESEGWNRRNVDPFHIYFCNLKIDGALHRELVKRYQEKWDKLLLTSTEKSHVDLFPKDSIIYLTADSPNVMTTFRHDKVYVIGSFVDKSMQPGTSLAKAKRLNLATECLPLDKYLQWEIGNKNLTLDQMIRILLCLKNNGNWQEALQFVPKRKHTGFLEISQHSQEFINRLKKAKT
Take B6: the “target (unweighted spectral count)” value (12 hpi (type n_12_v)) is reported as 6.

B7: HNRNPA2B1 (protein, UniProt P22626 1-353, looked up)
Heterogeneous nuclear …: MEKTLETVPLERKKREKEQFRKLFIGGLSFETTEESLRNYYEQWGKLTDCVVMRDPASKRSRGFGFVTFSSMAEVDAAMAARPHSIDGRVVEPKRAVAREESGKPGAHVTVKKLFVGGIKEDTEEHHLRDYFEEYGKIDTIEIITDRQSGKKRGFGFVTFDDHDPVDKIVLQKYHTINGHNAEVRKALSRQEMQEVQSSRSGRGGNFGFGDSRGGGGNFGPGPGSNFRGGSDGYGSGRGFGDGYNGYGGGPGGGNFGGSPGYGGGRGGYGGGGPGYGNQGGGYGGGYDNYGGGNYGSGNYNDFGNYNQQPSNYGPMKSGNFGGSRNMGGPYGGGNYGPGGSGGSGGYGGRSRY
For B7, the “target (unweighted spectral count, OC43 Probe II)” value was 86 and the “background (unweighted spectral count, no-probe control)” value stood at 7. In addition, the “target (unweighted spectral count)” value (12 hpi (type n_12_v)) was 28.

B8: SLC25A5 (protein, UniProt P05141 1-298, looked up)
ADP/ATP translocase 2: MTDAAVSFAKDFLAGGVAAAISKTAVAPIERVKLLLQVQHASKQITADKQYKGIIDCVVRIPKEQGVLSFWRGNLANVIRYFPTQALNFAFKDKYKQIFLGGVDKRTQFWLYFAGNLASGGAAGATSLCFVYPLDFARTRLAADVGKAGAEREFRGLGDCLVKIYKSDGIKGLYQGFNVSVQGIIIYRAAYFGIYDTAKGMLPDPKNTHIVISWMIAQTVTAVAGLTSYPFDTVRRRMMMQSGRKGTDIMYTGTLDCWRKIARDEGGKAFFKGAWSNVLRGMGGAFVLVLYDEIKKYT
Regarding B8, where the note is “12 hpi (type n_12_v)”, the “target (unweighted spectral count)” value amounted to 6.

B9: SLC2A1 (protein, UniProt P11166 1-492, looked up)
Solute carrier family 2, …: MEPSSKKLTGRLMLAVGGAVLGSLQFGYNTGVINAPQKVIEEFYNQTWVHRYGESILPTTLTTLWSLSVAIFSVGGMIGSFSVGLFVNRFGRRNSMLMMNLLAFVSAVLMGFSKLGKSFEMLILGRFIIGVYCGLTTGFVPMYVGEVSPTALRGALGTLHQLGIVVGILIAQVFGLDSIMGNKDLWPLLLSIIFIPALLQCIVLPFCPESPRFLLINRNEENRAKSVLKKLRGTADVTHDLQEMKEESRQMMREKKVTILELFRSPAYRQPILIAVVLQLSQQLSGINAVFYYSTSIFEKAGVQQPVYATIGSGIVNTAFTVVSLFVVERAGRRTLHLIGLAGMAGCAILMTIALALLEQLPWMSYLSIVAIFGFVAFFEVGPGPIPWFIVAELFSQGPRPAAIAVAGFSNWTSNFIVGMCFQYVEQLCGPYVFIIFTVLLVLFFIFTYFKVPETKGRTFDEIASGFRQGGASQSDKTPEELFHPLGADSQV
Consider B9, for which the “target (unweighted spectral count)” value (12 hpi (type n_12_v)) is listed as 6.

B10: DSG1 (protein, UniProt Q02413 50-1049, looked up)
Desmoglein-1: EWIKFAAACREGEDNSKRNPIAKIHSDCAANQQVTYRISGVGIDQPPYGIFVINQKTGEINITSIVDREVTPFFIIYCRALNSMGQDLERPLELRVRVLDINDNPPVFSMATFAGQIEENSNANTLVMILNATDADEPNNLNSKIAFKIIRQEPSDSPMFIINRNTGEIRTMNNFLDREQYGQYALAVRGSDRDGGADGMSAECECNIKILDVNDNIPYMEQSSYTIEIQENTLNSNLLEIRVIDLDEEFSANWMAVIFFISGNEGNWFEIEMNERTNVGILKVVKPLDYEAMQSLQLSIGVRNKAEFHHSIMSQYKLKASAISVTVLNVIEGPVFRPGSKTYVVTGNMGSNDKVGDFVATDLDTGRPSTTVRYVMGNNPADLLAVDSRTGKLTLKNKVTKEQYNMLGGKYQGTILSIDDNLQRTCTGTININIQSFGNDDRTNTEPNTKITTNTGRQESTSSTNYDTSTTSTDSSQVYSSEPGNGAKDLLSDNVHFGPAGIGLLIMGFLVLGLVPFLMICCDCGGAPRSAAGFEPVPECSDGAIHSWAVEGPQPEPRDITTVIPQIPPDNANIIECIDNSGVYTNEYGGREMQDLGGGERMTGFELTEGVKTSGMPEICQEYSGTLRRNSMRECREGGLNMNFMESYFCQKAYAYADEDEGRPSNDCLLIYDIEGVGSPAGSVGCCSFIGEDLDDSFLDTLGPKFKKLADISLGKESYPDLDPSWPPQSTEPVCLPQETEPVVSGHPPISPHFGTTTVISESTYPSGPGVLHPKPILDPLGYGNVTVTESYTTSDTLKPSVHVHDNRPASNVVVTERVVGPISGADLHGMLEMPDLRDGSNVIVTERVIAPSSSLPTSLTIHHPRESSNVVVTERVIQPTSGMIGSLSMHPELANAHNVIVTERVVSGAGVTGISGTTGISGGIGSSGLVGTSMGAGSGALSGAGISGGGIGLSSLGGTASIGHMRSSSDHHFNQTIGSASPSTARSRITKYSTVQYSK
Turning to B10, the “target (unweighted spectral count)” value (24 hpi (type n_24_v)) stood at 8.
